Where “and” joins values, the source holds several entries; their conditions need not be identical. Equal entries are not always repeated. Blank lines part the entries; values can stand above or below the binder they belong to.
Experiments:
[1] = target: T1, N-terminally polyhistidine tagged human MARCO ECD (147-520), recombinant (human, UniProt Q9UEW3 147-520); assay: Biacore; sample stressed 40 C 2 week
T1 construct: also called PI-RG-3000; recombinant human MARCO; not shown: N-terminal polyhistidine tag
T1 sequence: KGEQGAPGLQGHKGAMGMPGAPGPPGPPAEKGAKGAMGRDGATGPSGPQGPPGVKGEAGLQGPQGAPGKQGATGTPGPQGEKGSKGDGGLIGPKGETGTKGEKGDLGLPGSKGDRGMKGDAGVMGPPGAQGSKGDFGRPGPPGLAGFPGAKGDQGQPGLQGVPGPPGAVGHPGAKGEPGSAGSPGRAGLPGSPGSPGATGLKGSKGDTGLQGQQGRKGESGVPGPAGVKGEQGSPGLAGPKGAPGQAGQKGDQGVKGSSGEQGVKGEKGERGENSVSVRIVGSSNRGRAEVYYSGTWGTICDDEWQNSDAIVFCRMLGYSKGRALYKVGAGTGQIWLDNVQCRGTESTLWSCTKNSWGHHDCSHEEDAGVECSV
Protocol: Binding of the stressed samples to recombinant human MARCO was assessed by Biacore.

[2] = target: T1, N-terminally polyhistidine tagged human …; assay: Biacore; isomerization/fragmentation stress sample
[3] = target: T1, N-terminally polyhistidine tagged human …; assay: Biacore; oxidation stress sample (1 mM AAPH, 6 hrs)
[4] = target: T2, Human Macrophage Receptor with Collagenous Structure (MARCO), full length, on cells (human, UniProt Q9UEW3 1-520); assay: flow cytometry, cells overexpressing human MARCO; hu (first of hu/cyn)
T2 construct: the cell type is named under assay; also called huMARCO; HuMARCO
T2 sequence: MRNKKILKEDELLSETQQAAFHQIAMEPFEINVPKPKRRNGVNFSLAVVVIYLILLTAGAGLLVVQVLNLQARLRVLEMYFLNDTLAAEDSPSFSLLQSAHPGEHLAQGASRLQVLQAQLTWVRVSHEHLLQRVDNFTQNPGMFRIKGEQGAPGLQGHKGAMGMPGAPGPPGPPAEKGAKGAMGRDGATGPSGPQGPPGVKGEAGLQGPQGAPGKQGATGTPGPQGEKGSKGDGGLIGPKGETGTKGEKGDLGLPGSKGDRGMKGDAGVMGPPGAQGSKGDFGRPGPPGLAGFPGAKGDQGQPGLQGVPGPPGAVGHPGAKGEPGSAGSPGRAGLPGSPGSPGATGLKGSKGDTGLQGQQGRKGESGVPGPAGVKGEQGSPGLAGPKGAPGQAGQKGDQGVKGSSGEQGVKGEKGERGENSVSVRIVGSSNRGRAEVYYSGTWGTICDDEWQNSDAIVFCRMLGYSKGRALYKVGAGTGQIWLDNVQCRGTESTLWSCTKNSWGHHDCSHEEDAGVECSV

[5] = target: T3, Cynomolgus MARCO, full length, on cells (cynomolgus, UniProt A0A2K5X0Z2 1-519); assay: flow cytometry, cells overexpressing cyno MARCO; cyn (second of hu/cyn)
T3 construct: whole, on cells; also called cyno MARCO; CyMARCO
T3 sequence: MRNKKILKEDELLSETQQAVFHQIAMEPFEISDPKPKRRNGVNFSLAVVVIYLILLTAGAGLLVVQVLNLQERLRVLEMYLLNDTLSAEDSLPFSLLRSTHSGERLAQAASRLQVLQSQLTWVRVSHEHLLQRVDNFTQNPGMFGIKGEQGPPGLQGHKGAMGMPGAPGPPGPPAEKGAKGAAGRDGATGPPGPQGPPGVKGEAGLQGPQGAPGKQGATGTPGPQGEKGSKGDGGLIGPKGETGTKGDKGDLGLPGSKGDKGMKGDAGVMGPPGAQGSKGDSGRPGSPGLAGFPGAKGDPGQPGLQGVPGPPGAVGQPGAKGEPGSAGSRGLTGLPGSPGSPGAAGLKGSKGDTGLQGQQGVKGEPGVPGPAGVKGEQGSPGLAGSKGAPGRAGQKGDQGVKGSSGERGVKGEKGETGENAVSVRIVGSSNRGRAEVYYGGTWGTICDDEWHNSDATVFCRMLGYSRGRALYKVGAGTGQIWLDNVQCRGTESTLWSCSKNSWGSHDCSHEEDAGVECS

[6] = target: T1, N-terminally polyhistidine tagged human …; assay: KD (nM) Human; method not given
[7] = target: T2, Human Macrophage Receptor with …; assay: flow cytometry, cells overexpressing human MARCO
Protocol: Supernatants were removed and cell pellets were resuspended in Ca²⁺+ and Mg²⁺+ Dulbecco's phosphate-buffered saline (D-PBS) at 1×10⁶ cells/ml. 100,000 cells/well were plated onto U-bottom 96-well plates for staining and all centrifugation steps were performed at 1500 rpm at 4° C. for 5 min and samples were kept protected from light throughout the protocol. Cells were pelleted and resuspended in 100 μl of Zombie NIR viability dye (BioLegend) prepared by diluting Zombie NIR dimethyl sulfoxide (DMSO) stock 1000-fold in D-PBS. Cells were stained by incubation for 10 min at room temperature (RT) in the dark, followed by quenching the staining reaction with the addition of 100 μl of Staining Medium (D-PBS containing 2% FBS and 2 mM ethylenediaminetetraacetic acid (EDTA). Cells were pelleted and resuspended in 100 μl of the different antibodies and hybridomas supernatants needed for screening and corresponding isotype controls in freshly prepared staining medium, such as PI-M014 and mIgG2b isotype. All mAbs were tested at the final top concentration of 100 nM (15 μg/ml) followed by an 8-point three-fold serial dilution, including 0 mg/ml control. Staining was carried out for 1 hour (hr) on ice, followed by 2 washes in Staining Medium. Cells were then pelleted and resuspended in 100 μl of allophycocyanin (APC)-conjugated goat anti-mouse IgG (Fc-specific) secondary antibody, prepared by 500-fold dilution of the antibody stocks in Staining Medium, and incubated for 30 min on ice. […] Flow cytometry data were analyzed using FlowJo software (version 10.6.1) and data were processed and further analyzed in Microsoft Excel and GraphPad Prism software (version 8). Half-maximal effective concentrations (EC₅₀) were calculated based on geometric mean fluorescence intensities (gMFI). In case when the plates were not able to be analyzed on the cytometer, cells were pelleted after the washes and fixed in 100 μl of 2% paraformaldehyde (PFA), prepared by diluting the 16% (w/v) stock (Thermo Fisher) in DPBS, for 15 min at RT. […]

Kd [1]: 1.2 nM | Kd [2]: 1.24 nM | Kd [3]: 1.29 nM | EC50 [4]: 0.798 nM | EC50 [5]: 1.16 nM
B1: PI-3015-AB (antibody, human IgG1, kappa)
heavy: not shown
light: DIQMTQSPSSLSASVGDRVTITCRASEGISNDLAWYQQKPGKAPKLLIYAASRLQSGVPSRFSGSGSGTDYTLTISSMQPEDFATYYCQQSYKYPLTFGQGTKLEIKRTVAAPSVFIFPPSDEQLKSGTASVVCLLNNFYPREAKVQWKVDNALQSGNSQESVTEQDSKDSTYSLSSTLTLSKADYEKHKVYACEVTHQGLSSPVTKSFNRGEC

Kd [6]: 0.43 nM and 0.64 nM | EC50 [7]: 0.68 nM
B2: PI-3010-AB (antibody, human IgG1, kappa)
heavy: not shown
light: DIQMTQSPASLSTSLGETVSIECLASEGISNDLAWYQQKSGKSPQLLIYAASRLQDGVPSRFSGSGSGTRYSLKISGMQPEDEADYFCQQSYKYPLTFGSGTKLEIKRTVAAPSVFIFPPSDEQLKSGTASVVCLLNNFYPREAKVQWKVDNALQSGNSQESVTEQDSKDSTYSLSSTLTLSKADYEKHKVYACEVTHQGLSSPVTKSFNRGEC

— patent US20220153832A1 (PIONYR IMMUNOTHERAPEUTICS, published 2022)
